These results are taken from publication PMC5798830, “Hexons from adenovirus serotypes 5 and 48 differentially protect adenovirus vectors from neutralization by mouse and human serum” (PLoS ONE, 2018).

Experiment [1] has as its target T1, human coagulation factor X (human).
T1 construct: Probably plasma zymogen with Gla residues in the light chain (surmised); also called human FX; FX; source: bought: Haematologic Technologies, Inc
The experiment in a line: SPR; Biacore T200; about 1,200 reference units of Ad5.0, Ad5:H48 or Ad48 particles immobilised on a CM5 chip; FX as analyte at four concentrations (max 42 nM for Ad5.0 and Ad5:H48, 212 nM for Ad48); 10 mM HEPES, 150 mM NaCl, 1 mM CaCl2, 0.5 mM MgCl2, 0.1% BSA, 0.05% polysorbate 20, pH 7.4; 50 uL/min; global fit to a 1:1 kinetic model. The settings on record: both partners purified. In general terms: In SPR one partner is held on a chip, and binding of the other changes the refractive index at the surface.

Experiment [2] deals with T2, mouse coagulation factor X (mouse).
T2 construct: also called mouse FX; FX; source: bought: Haematologic Technologies, Inc
The experiment is described as above. The settings on record: both partners purified.

B1: Ad5.0 vector (adenovirus serotype 5 vector with a wild-type Ad5 capsid) (complex)
chain: ATPSMMPQWSYMHISGQDASEYLSPGLVQFARATETYFSLNNKFRNPTVAPTHDVTTDRSQRLTLRFIPVDREDTAYSYKARFTLAVGDNRVLDMASTYFDIRGVLDRGPTFKPYSGTAYNALAPKGAPNPCEWDEAATALEINLEEEDDDNEDEVDEQAEQQKTHVFGQAPYSGINITKEGIQIGVEGQTPKYADKTFQPEPQIGESQWYETEINHAAGRVLKKTTPMKPCYGSYAKPTNENGGQGILVKQQNGKLESQVEMQFFSTTEATAGNGDNLTPKVVLYSEDVDIETPDTHISYMPTIKEGNSRELMGQQSMPNRPNYIAFRDNFIGLMYYNSTGNMGVLAGQASQLNAVVDLQDRNTELSYQLLLDSIGDRTRYFSMWNQAVDSYDPDVRIIENHGTEDELPNYCFPLGGVINTETLTKVKPKTGQENGWEKDATEFSDKNEIRVGNNFAMEINLNANLWRNFLYSNIALYLPDKLKYSPSNVKISDNPNTYDYMNKRVVAPGLVDCYINLGARWSLDYMDNVNPFNHHRNAGLRYRSMLLGNGRYVPFHIQVPQKFFAIKNLLLLPGSYTYEWNFRKDVNMVLQSSLGNDLRVDGASIKFDSICLYATFFPMAHNTASTLEAMLRNDTNDQSFNDYLSAANMLYPIPANATNVPISIPSRNWAAFRGWAFTRLKTKETPSLGSGYDPYYTYSGSIPYLDGTFYLNHTFKKVAITFDSSVSWPGNDRLLTPNEFEIKRSVDGEGYNVAQCNMTKDWFLVQMLANYNIGYQGFYIPESYKDRMYSFFRNFQPMSRQVVDDTKYKDYQQVGILHQHNNSGFVGYLAPTMREGQAYPANFPYPLIGKTAVDSITQKKFLCDRTLWRIPFSSNFMSMGALTDLGQNLLYANSAHALDMTFEVDPMDEPTLLYVLFEVFDVVRVHRPHRGVIETVYLRTPFSAGNATT
The term Kd denotes a measure of binding affinity in units of concentration. Lower therefore signals tighter binding. On to B1, for which the Kd in experiment [1] is 0.82 nM; in experiment [2], 0.42 nM.
